For assay [1], the target named is T1, Biotinylated Aβ peptide with amino acids 26-40 and a glycine at the C-terminus (also: biotinylated (position not given here)).
T1 peptide: SNKGAIIGLMVGGVVG
The assay can be described thus: ELISA, biotinylated peptide on streptavidin-coated plate, goat anti-human kappa HRP. As to the method: (§1) Various Aβ peptides (assigned SEQ ID NO:18-26, 31, and 27-29 from top to bottom sequences) were immobilized on ELISA plates. Antibodies were incubated for 1 hour with various immobilized peptides. Antibody 6G bound to immobilized Aβ peptides were measured using goat anti-human kappa HRP conjugated secondary antibody. […] “NB” refers to no binding detected.
(§2) ELISA was used for measuring binding of antibody 6G and variants to biotinylated Aβ peptides. NUNC maxisorp plates were coated with 6 ug/ml of streptavidin (Pierce, 21122) in PBS pH 7.4 for more than 1 h at 4° C. Plates were blocked with 1% BSA in PBS buffer pH 7.4. After washing, biotinylated Aβ peptides in PBS pH 7.4 were incubated 1 hour at room temperature. Primary antibody (from cell supernatants, serum containing anti-Aβ antibody, or purified full antibody or Fabs at desired dilution) was incubated with the immobilized Aβ peptides for 1 h at room temperature. After washing, plates were incubated with secondary antibody, a HRP conjugated goat anti-human kappa chain antibody (MP Biomedicals, 55233) at 1:5000 dilution. After washing, bound secondary antibody was measured by adding TMB substrate (KPL, 50-76-02, 50-65-02). HRP reaction was stopped by adding 1M phosphoric acid and absorbance at 450 nm was measured.
In general terms: In an ELISA, binding on a coated surface is turned into a signal by an enzyme label.

Assay [2] concerns the target T2, Biotinylated Aβ peptide with amino acids 26-35 and a glycine at the C-terminus (also: biotinylated (position not given here)).
T2 peptide: SNKGAIIGLMG
The description is as above. The procedure: as §1, §2

Assay [3] concerns the target T3, Biotinylated Aβ peptide with amino acids 19-33 and a glycine at the C-terminus (also: biotinylated (position not given here)).
T3 peptide: FFAEDVGSNKGAIIGG
The description is as above. As to the method:
as §1, §2

Assay [4] has as its target T4, Biotinylated Aβ peptide with amino acids 24-33 and a glycine at the C-terminus (also: biotinylated (position not given here)).
T4 peptide: VGSNKGAIIGG
The assay is described as above. The procedure: as §1, §2

A further assay has as its target T5, 28 KGAIIGLMVGGVVIAG (also: biotinylated (position not given here)).
T5 construct: It differs from m21 (Aβ peptide 28-42, not biotinylated, no added glycine); also called Biotinylated Aβ peptide with amino acids 28-42 and a glycine at the C-terminus; 28-42 15-mer
T5 peptide: KGAIIGLMVGGVVIAG
Described as above. The procedure: as §1, §2

In assay [5] the target is T6, Biotinylated Aβ peptide with amino acids 27-41 and a glycine at the C-terminus (also: biotinylated (position not given here)).
T6 peptide: NKGAIIGLMVGGVVIG
Described as above. The procedure:
as §1, §2

The target of the next assay is T7, Aβ1-42.
T7 construct: also called 1-42 (WT); Aβ peptide 1-42
The assay can be described thus: ELISA, nonbiotinylated peptide on plate. The procedure:
(§3) ELISA was used for measuring binding of antibody 6G and variants to nonbiotinylated Aβ peptides. NUNC maxisorp plates were coated with 2.5 ug/ml of Aβ peptides in PBS pH 7.4 for more than 1 hour at 4° C. Plates were blocked with 1% BSA in PBS buffer pH 7.4. Primary antibody (from cell supernatants, serum containing anti-Aβ antibody, or purified full antibody or Fabs at desired dilution) was incubated with the immobilized Aβ peptides for 1 h at room temperature. After washing, the plates were incubated with secondary antibody, a HRP conjugated goat anti-human kappa chain antibody (MP Biomedicals, 55233) at 1:5000 dilution. After washing, bound secondary antibody was measured by adding TMB substrate (KPL, 50-76-02, 50-65-02). The HRP reaction was stopped by adding 1M phosphoric acid and absorbance at 450 nm was measured.
(§4) All amino acid substitutions of the variants shown in Table 3 are described relative to the sequence of 6G. Binding was determined by ELISA described above with nonbiotinylated Aβ₁₋₄₀ or Aβ₁₋₄₂ immobilized on the surface of an ELISA plate.

A further assay has as its target T8, Aβ1-40.
T8 construct: also called 1-40 (WT); Aβ peptide 1-40
The assay can be described thus: ELISA, nonbiotinylated peptide on plate. As to the method:
as §3, §4

No end group written: not given here.

Data on eight molecules can be found in US20110044985A1 (RINAT NEUROSCIENCE, published 2011).

T7 sequence (peptide, as listed by the source): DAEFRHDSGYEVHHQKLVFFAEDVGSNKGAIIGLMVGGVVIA
T8 sequence (peptide, as listed by the source): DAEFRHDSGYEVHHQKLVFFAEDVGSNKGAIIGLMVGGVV

B1: antibody 6G (antibody, V domains shown)
VH: QVQLVQSGAEVKKPGASVKVSCKASGYTFTTYAIHWVRQAPGQGLEWMGFTSPYSGVSNYNQKFKGRVTMTRDTSTSTVYMELSSLRSEDTAVYYCARFDNYDRGYVRDYWGQGTLVTVSS
VL: DIVMTQSPDSLAVSLGERATINCRASESVDNDRISFLNWYQQKPGQPPKLLIYAATKQGTGVPDRFSGSGSGTDFTLTISSLQAEDVAVYYCQQSKEFPWSFGGGTKVEIKR
notes: Full antibody; human IgG2a constant region with A330P331 to S330S331, human kappa; also called 6G monoclonal antibody; 6G full antibody
Regarding B1, the binding result (in assay [1]; in assay [2]; in assay [3]; in assay [4]; with 28 KGAIIGLMVGGVVIAG; in assay [5]) was “no binding (tested: 10 ug/ml)” each time.

B2: 6G light chain mutant variant 7E (Q94R) (antibody, V domains shown)
VH: QVQLVQSGAEVKKPGASVKVSCKASGYTFTTYAIHWVRQAPGQGLEWMGFTSPYSGVSNYNQKFKGRVTMTRDTSTSTVYMELSSLRSEDTAVYYCARFDNYDRGYVRDYWGQGTLVTVS
VL: DIVMTQSPDSLAVSLGERATINCRASESVDNDRISFLNWYQQKPGQPPKLLIYAATKQGTGVPDRFSGSGSGTDFTLTISSLQAEDVAVYYCQRSKEFPWSFGGGTKVEIKR
As to B2, the “A450 ELISA” value in the assay with Aβ1-42 came out at 0.18 A450.

B3: 6G light chain mutant variant 6E (E97P) (antibody, V domains shown)
VH: QVQLVQSGAEVKKPGASVKVSCKASGYTFTTYAIHWVRQAPGQGLEWMGFTSPYSGVSNYNQKFKGRVTMTRDTSTSTVYMELSSLRSEDTAVYYCARFDNYDRGYVRDYWGQGTLVTVS
VL: DIVMTQSPDSLAVSLGERATINCRASESVDNDRISFLNWYQQKPGQPPKLLIYAATKQGTGVPDRFSGSGSGTDFTLTISSLQAEDVAVYYCQQSKPFPWSFGGGTKVEIKR
Consider B3, for which the “A450 ELISA” value with Aβ1-42 worked out at 0.2 A450.

B4: 6G light chain mutant variant 7F (Q94K) (antibody, V domains shown)
VH: QVQLVQSGAEVKKPGASVKVSCKASGYTFTTYAIHWVRQAPGQGLEWMGFTSPYSGVSNYNQKFKGRVTMTRDTSTSTVYMELSSLRSEDTAVYYCARFDNYDRGYVRDYWGQGTLVTVS
VL: DIVMTQSPDSLAVSLGERATINCRASESVDNDRISFLNWYQQKPGQPPKLLIYAATKQGTGVPDRFSGSGSGTDFTLTISSLQAEDVAVYYCQKSKEFPWSFGGGTKVEIKR
B4: the “A450 ELISA” value with Aβ1-42 was 0.19 A450.

B5: 6G heavy chain mutant variant 7D (N101C) (antibody, V domains shown)
VH: QVQLVQSGAEVKKPGASVKVSCKASGYTFTTYAIHWVRQAPGQGLEWMGFTSPYSGVSNYNQKFKGRVTMTRDTSTSTVYMELSSLRSEDTAVYYCARFDCYDRGYVRDYWGQGTLVTVS
VL: DIVMTQSPDSLAVSLGERATINCRASESVDNDRISFLNWYQQKPGQPPKLLIYAATKQGTGVPDRFSGSGSGTDFTLTISSLQAEDVAVYYCQQSKEFPWSFGGGTKVEIKR
Consider B5, for which, in the assay with Aβ1-42, the “A450 ELISA” value worked out at 0.31 A450.

B6: 6G heavy chain mutant variant 8H (N101H) (antibody, V domains shown)
VH: QVQLVQSGAEVKKPGASVKVSCKASGYTFTTYAIHWVRQAPGQGLEWMGFTSPYSGVSNYNQKFKGRVTMTRDTSTSTVYMELSSLRSEDTAVYYCARFDHYDRGYVRDYWGQGTLVTVS
VL: DIVMTQSPDSLAVSLGERATINCRASESVDNDRISFLNWYQQKPGQPPKLLIYAATKQGTGVPDRFSGSGSGTDFTLTISSLQAEDVAVYYCQQSKEFPWSFGGGTKVEIKR
With B6, the “A450 ELISA” value in the assay with Aβ1-40 was 0.21 A450.

B7: 6G light chain mutant variant 10E (S95L) (antibody, V domains shown)
VH: QVQLVQSGAEVKKPGASVKVSCKASGYTFTTYAIHWVRQAPGQGLEWMGFTSPYSGVSNYNQKFKGRVTMTRDTSTSTVYMELSSLRSEDTAVYYCARFDNYDRGYVRDYWGQGTLVTVS
VL: DIVMTQSPDSLAVSLGERATINCRASESVDNDRISFLNWYQQKPGQPPKLLIYAATKQGTGVPDRFSGSGSGTDFTLTISSLQAEDVAVYYCQQLKEFPWSFGGGTKVEIKR
Regarding B7, the “A450 ELISA” value with Aβ1-42 came out at 0.12 A450.

B8: 6G light chain mutant variant 5B (Q94G) (antibody, V domains shown)
VH: QVQLVQSGAEVKKPGASVKVSCKASGYTFTTYAIHWVRQAPGQGLEWMGFTSPYSGVSNYNQKFKGRVTMTRDTSTSTVYMELSSLRSEDTAVYYCARFDNYDRGYVRDYWGQGTLVTVS
VL: DIVMTQSPDSLAVSLGERATINCRASESVDNDRISFLNWYQQKPGQPPKLLIYAATKQGTGVPDRFSGSGSGTDFTLTISSLQAEDVAVYYCQGSKEFPWSFGGGTKVEIKR
Turning to B8, in the assay with Aβ1-42, the “A450 ELISA” value came out at 0.14 A450.
